Source: the supplement of paper PMC9732359
± gives the uncertainty stated by the source.

Experiment: protein stability index of a GFP-peptide fusion (yeast GPS) (PSI 1-4); higher = more stable; sorted into four equal gates, so the index is relative within each strain
Procedure, shortened: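 The protein stability index of a peptide was calculated by multiplying its read frequency in each gate by that gate's number and adding the products. The peptides were tiled 17-residue stretches of yeast proteins, fused downstream of GFP on a Cherry-expressing plasmid and carried in yeast as a pooled library. Mid-log cultures in leucine-free medium were sorted into four equal gates by GFP/Cherry ratio, and each gate's plasmids were PCR-amplified and Illumina-sequenced.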

Sequence	protein stability index (doa10∆)	protein stability index (pdr5∆)	protein stability index (san1∆)	protein stability index (ubr1∆)
KPTREPTPSVKTEPVGT [RPC53]	3.15 ± 0.22	3.06 ± 0.26	2.95 ± 0.19	3.02 ± 0.21
RYNVEKVKRLMDFLEED [NSL1]	2.08 ± 0.098	1.26 ± 0.16		2.25 ± 0.19
KNVENTKNLSILTSKVN [DSN1]	2.37 ± 0.061	2.36 ± 0.049	2.53 ± 0.077	2.51 ± 0.036
EQSKEVGDVVGGALDNP [BRN1]	3.29 ± 0.091	3.54 ± 0.078	3.44 ± 0.057	3.38 ± 0.058
AALERLKIFEGIPPPYD [RPL16B]	1.62 ± 0.12	2.52 ± 0.089	1.34 ± 0.23	1.27 ± 0.064
QNTIDDTEMKMKSLLTE [YIL149C/MLP2]	3.25 ± 0.066	3.39 ± 0.054	3.17 ± 0.067	3.19 ± 0.05
KGTNGKKALKVRTSATF [RPL25]	3.15 ± 0.13	3.03 ± 0.12	3.06 ± 0.13	3.3 ± 0.068
KDPSPEILVLYNVCDTS [SIN4]	2.8 ± 0.071	2.9 ± 0.06	2.82 ± 0.058	2.88 ± 0.12
NINNNINSTKNGKDNNN [MED2]	3.28 ± 0.068	3.26 ± 0.053	3.24 ± 0.045	3.35 ± 0.041
LDIEKEAPAGNIDTITD [MCD1]	2.84 ± 0.081	3.03 ± 0.066	3.07 ± 0.086	3.08 ± 0.052
DVKCWSKFIEKFQDIVS [MED1]	1.83 ± 0.12	2.62 ± 0.12	2.09 ± 0.14	1.89 ± 0.1
TSASQPFKFGKTSEKSE [YOR098C/NUP1]	3.1 ± 0.14	3.22 ± 0.15	2.96 ± 0.13	3.17 ± 0.093
ISEEETTVKPLFQNVPE [YAR002W/NUP60]	3.01 ± 0.069	3.25 ± 0.068	3.23 ± 0.043	3.01 ± 0.058
VEIVNYNVENQQYVAAG [FAS1]	2.66 ± 0.17	2.67 ± 0.18		
KKTCSSCGYPSAKTRSH [RPL37B]	2.74 ± 0.066	2.51 ± 0.044	2.63 ± 0.084	1.99 ± 0.04
INIQKYNNNTIRKLLEK [CSI1]	2.85 ± 0.25	2.51 ± 0.17		2.54 ± 0.11
QEGIEAIATTVIAHLTV [RET1]	1.86 ± 0.057	1.93 ± 0.05	1.84 ± 0.059	2.01 ± 0.033
FKLQEEERERKDQYVPE [RPS17A]	3.14 ± 0.14	3.38 ± 0.091	3.4 ± 0.061	3.24 ± 0.093
LSSVALRSDFYILANHY [YJL039C/NUP192]	2.06 ± 0.15	2.28 ± 0.13	1.59 ± 0.24	2 ± 0.098
TYRCSIKNLPADVSKLM [SRB2]	2.56 ± 0.061	2.83 ± 0.05	2.33 ± 0.05	2.69 ± 0.044
SNIDIRVRVTGGGHVSQ [RPS16A]	2.02 ± 0.093	2.31 ± 0.063	2.78 ± 0.13	2.08 ± 0.044
SLGHQTSLITAVYGPRS [MTR3]	2.54 ± 0.052	2.24 ± 0.056	2.63 ± 0.061	1.81 ± 0.053
DIEDALVLNKSSIDRGF [RET1]	2.37 ± 0.095	2.83 ± 0.14	2.24 ± 0.19	2.97 ± 0.22
SQTPKVEKTEKPKKPKG [RPS30A]	3.1 ± 0.07	3.12 ± 0.07	2.93 ± 0.051	2.94 ± 0.047
KAGRAFHKYRLKRNSWP [RPL2A]	2.87 ± 0.082	2.88 ± 0.063	2.13 ± 0.058	2.05 ± 0.064
DNRTKSTTIKNIDILNR [SMC4]	1.85 ± 0.062	2.07 ± 0.062	1.77 ± 0.15	1.67 ± 0.08

Sequence	protein stability index (doa10∆)	protein stability index (pdr5∆)	protein stability index (san1∆)	protein stability index (ubr1∆)
LEVGKNNFCALYNLSNP [RPN14]	1.58 ± 0.092	1.2 ± 0.14	1.43 ± 0.15	1.13 ± 0.046
RSSEEINSDNQNIILRS [RPN3]	3.03 ± 0.26	3.24 ± 0.19		3.2 ± 0.19
QELEKRMPMDFKGVIVK [PRE1]	1.77 ± 0.18		2.8 ± 0.12	1.81 ± 0.071
MSGGGNHVAKGLMKLGT [SMC4]		3.56 ± 0.3		
ARILGTRALQISMNAPV [RPO26]		1.45 ± 0.24		1.39 ± 0.13
MEFSNLYKEFFNEKFPS [NUT1]		3.17 ± 0.15	2.98 ± 0.069	3.04 ± 0.1
QKGTIGITYRREDMPFT [RPB2]	3.01 ± 0.1	2.68 ± 0.08	2.8 ± 0.08	2.9 ± 0.069
TQQQPGAPGANARMPGM [SRP54]	3.1 ± 0.12	2.89 ± 0.096	2.89 ± 0.25	2.7 ± 0.084
DDFQNFFDPKPFDQNLD [SWI1]	2.53 ± 0.061	1.95 ± 0.055	2.13 ± 0.1	2.12 ± 0.052
GPVRENDILVLMESERE [RPS28A]	2.61 ± 0.23	3.4 ± 0.083	3.26 ± 0.14	2.81 ± 0.092
SPRVEKRSFSSTLKSFF [YOR098C/NUP1]	1.55 ± 0.067	2 ± 0.046	2.26 ± 0.078	1.92 ± 0.043
IQGFYWAVKEGPLAEEP [SNU114]	1.58 ± 0.089	1.35 ± 0.086	1.27 ± 0.21	1.22 ± 0.04
IRGIVKQIVHDSGRGAP [RPL2A]	1.76 ± 0.07	1.88 ± 0.065	2.79 ± 0.047	2.12 ± 0.07
QQQQQQQQQQQQQQQQQ [GAL11]	2.57 ± 0.032	2.78 ± 0.028	2.661 ± 0.026	2.903 ± 0.023
QAESMKFKLLNGLAIRR [RPS3]	1.69 ± 0.069	2.3 ± 0.085	1.48 ± 0.12	2.58 ± 0.1
VLIFFQMTQIMDIMEDF [SNF2]	1.67 ± 0.083	1.52 ± 0.085	2.18 ± 0.13	2.42 ± 0.091
WDHPVIAGVITRSKRLS [CSN12]	2.86 ± 0.17	2.82 ± 0.11	3.13 ± 0.11	3.02 ± 0.068
TSDGALSVMCGCGTVKR [RPR2]	2.43 ± 0.13	2.67 ± 0.1	1.93 ± 0.14	1.78 ± 0.13
KKNDEVSKPAFSFGAKA [YJL041W/NSP1]	3.12 ± 0.14	3.02 ± 0.15	2.96 ± 0.094	3.07 ± 0.099
DKEWVFAALSDSYGQGS [SSN2]	3.18 ± 0.11	3.46 ± 0.1	3.1 ± 0.13	3.34 ± 0.09
AQQQQLSNYPQQIQEQV [YGR119C/NUP57]	2.82 ± 0.059	3.09 ± 0.058	2.71 ± 0.046	3.02 ± 0.044
LCMDSSYIGTIIVKDKS [POP1]	1.2 ± 0.091	1.49 ± 0.048	1.13 ± 0.11	1.28 ± 0.089
SYKMIQLDAYGEKKVGS [SWP82]	3.27 ± 0.093	3.37 ± 0.093	3.35 ± 0.075	3.02 ± 0.072
RFNFISKYFIIDSFFLY [YMR129W/POM152]	1.58 ± 0.061	1.24 ± 0.072	1.31 ± 0.12	1.12 ± 0.059
SGAYSYPDFRHYGLAVD [DIS3]	1.82 ± 0.047	2.56 ± 0.056	2.42 ± 0.089	2.67 ± 0.043
MIDAVFEQDSHLRYQPD [SNF6]	3.09 ± 0.076	3.19 ± 0.065	3.15 ± 0.041	3.19 ± 0.054
